The target in the assay is Arp2/3 complex (Bos taurus, UniProt A7MB62). Put plainly: single-filament microfluidics TIRF detachment assay.

The text below walks through data of paper PMC10152144 (2026).

B1: GMF (protein)
chain: SDSLVVCEVDPELKETLRKFRFRKETNNAAIIMKVDKDRQMVVLEDELQNISPEELKLELPERQPRFVVYSYKYVHDDGRVSYPLCFIFSSPVGCKPEQQMMYAGSKNRLVQTAELTKVFEIRTTDDLTETWLKEKLAFFR
The Kd is a measure of binding affinity in units of concentration. High values mean weaker binding, low ones tighter binding. B1 had a Kd of 70 nM.

B2: VCA motif VCA (protein)
chain: PSDGDHQVPTTAGNKAALLDQIREGAQLKKVEQNSRPVSCSGRDALLDQIRQGIQLKSVADGQESTPPTPAPTSGIVGALMEVMQKRSKAIHSSDEDEDEDDEEDFEDDDEWED
On to B2, for which the Kd worked out at 560 nM. Against the preceding molecule, the Kd is about 8-fold higher.
